Measurements from paper PMC6045459 (Nature structural & molecular biology, 2018).

Experiments:
[1] = target: NUDT16TI with deletion of His105 (UniProt Q96DE0); test: ITC
NUDT16TI K5S = NUDT16TI K5S (UniProt Q96DE0); test: ITC
[2] = target: NUDT16TI (NUDT16 Tudor-interacting), purified alone (UniProt Q96DE0); test: ITC
AUC = target: the molecule itself; test: AUC
[3] = target: TIRR (residues 6-211), untagged (human, UniProt Q9BRJ7 6-211); test: crystal structure
Sequence of TIRR (residues 6-211), untagged (Q9BRJ7 6-211): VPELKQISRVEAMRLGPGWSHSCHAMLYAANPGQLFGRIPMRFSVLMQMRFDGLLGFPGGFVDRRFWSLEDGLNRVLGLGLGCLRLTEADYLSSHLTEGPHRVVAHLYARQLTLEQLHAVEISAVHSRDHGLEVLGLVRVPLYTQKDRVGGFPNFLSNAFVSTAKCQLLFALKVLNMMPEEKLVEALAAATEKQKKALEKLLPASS

Question: For “53BP1-Tudor (residues 1484-1603) (from UniProt Q12888 1484-1603) (domain or fragment)”, which fold decrease in affinity against NUDT16TI [1] is on record?
Answer: The fold decrease in affinity against NUDT16TI was 38 fold.

Question: And the fold decrease in affinity against NUDT16TI (NUDT16TI K5S)?
Answer: Its fold decrease in affinity against NUDT16TI is 14 fold.

Question: What about the Kd [2] of the same molecule?
Answer: The Kd was 1200 nM.

Question: And the fold increase of Kd with excess IMP against no IMP [2]?
Answer: The fold increase of Kd with excess IMP against no IMP was 3 fold.

B1: 53BP1 (residues 1204-1603) (domain or fragment, human, UniProt Q12888 1204-1603, looked up)
chain: EKPVSAPGDDTESLHSQGEEEFDMPQPPHGHVLHRHMRTIREVRTLVTRVITDVYYVDGTEVERKVTEETEEPIVECQECETEVSPSQTGGSSGDLGDISSFSSKASSLHRTSSGTSLSAMHSSGSSGKGAGPLRGKTSGTEPADFALPSSRGGPGKLSPRKGVSQTGTPVCEEDGDAGLGIRQGGKAPVTPRGRGRRGRPPSRTTGTRETAVPGPLGIEDISPNLSPDDKSFSRVVPRVPDSTRRTDVGAGALRRSDSPEIPFQAAAGPSDGLDASSPGNSFVGLRVVAKWSSNGYFYSGKITRDVGAGKYKLLFDDGYECDVLGKDILLCDPIPLDTEVTALSEDEYFSAGVVKGHRKESGELYYSIEKEGQRKWYKRMAVILSLEQGNRLREQYGLG
Question: With B1 as the molecule, how does the “stoichiometry N” value (AUC) read?
Answer: Its value is 2.

B2: 53BP1-Tudor (residues 1484-1603) (domain or fragment, human, UniProt Q12888 1484-1603, looked up)
chain: NSFVGLRVVAKWSSNGYFYSGKITRDVGAGKYKLLFDDGYECDVLGKDILLCDPIPLDTEVTALSEDEYFSAGVVKGHRKESGELYYSIEKEGQRKWYKRMAVILSLEQGNRLREQYGLG
Question: Does B2 bind [3]?
Answer: Result: binds
